This is an account of results in US20240124586A1 (WUXI BIOLOGICS IRELAND, published 2024).

Assay [1] deals with T1, human PD-1 ECD mouse Fc fusion (W305-hPro1.ECD.mFc) (human, UniProt Q15116 25-170).
T1 construct: extracellular domain; In-house protein; also called hPD-1-ECD; human PD-1 coated on the plate
As to the kind of experiment: dual-binding ELISA: human PD-1 ECD coated, antibody titrated, bound antibody detected with biotinylated human CTLA-4 ECD and streptavidin-HRP. How it is done:
In order to test whether the bispecific antibodies could bind to both hPD-1 and hCTLA-4, an ELISA assay was developed as below. A 96-well ELISA plate (Nunc MaxiSorp, ThermoFisher) was coated overnight at 4° C. with 0.5 μg/ml antigen-1 (hPD-1-ECD, W305-hPro1.ECD.mFc) in carbonate-bicarbonate buffer. After a 1 hour blocking step with 2% (w/v) bovine serum albumin (Pierce) dissolved in PBS, serial dilutions of the different PD-1×CTLA-4 bispecific antibodies in PBS containing 2% BSA PBS were incubated on the plates for 1 hour at room temperature. Following the incubation, plates were washed three times with 300 μL per well of PBS containing 0.5% (v/v) Tween 20. […] After washing the plates three times, Streptavidin-HRP (Lifetechnologies, #SNN1004) (1:20000 diluted) was added and incubated on the plates for 1 hour at room temperature. After washing six times with […] per well of PBS containing 0.5% (v/v) Tween 20, 100 μL tetramethylbenzidine (TMB) substrate was added for the detection per well. The reaction was stopped after approximately 5 minutes through the addition of […] per well of 2 M HCl. The absorbance of the wells was measured at 450 nm with a multiwall plate reader (SpectraMax® M5e).

Assay [2] addresses T2, human PD-1 on engineered CHO-S cells (W305-CHO-S.hPro1.C6) (human, UniProt Q15116 25-288).
T2 construct: whole, on cells; also called human PD-1 engineered cells; PD-1+ cells
Kind of assay: FACS on human PD-1 engineered cells. Summed up: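 CHO-S cells engineered to express human PD-1 (1×10⁵/well) were incubated with antibodies titrated 3.16-fold from 200 nM to 0.002 nM in 1% BSA DPBS, 1 h at 4 °C. Bound antibody was detected with PE-labeled goat anti-human secondary (1 h, 4 °C) by flow cytometry as MFI.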

The target of assay [3] is T3, human CTLA-4 on engineered 293F cells (W316-293F.hPro1.FL) (human, UniProt P16410 36-223).
T3 construct: whole, on cells; also called human CTLA-4 engineered cells; CTLA-4+ cells
Kind of assay: FACS on human CTLA-4 engineered cells, against benchmark BMK1. How it is done:
(§1) 3.16-fold titrated Abs with 1% BSA DPBS from 200 nM to 0.002 nM were added to the cells. Plates were incubated at 4° C. for 1 hour. After wash, […] 1:150 diluted PE-labeled goat anti-human antibody (Jackson 109-115-098) was added to each well and the plates were incubated at 4° C. for 1 hour. The binding of the antibodies onto the cells was tested by flow cytometry and the mean fluorescence intensity (MFI) was analyzed by FlowJo.

Assay [4] deals with T2, human PD-1 on engineered CHO-S cells …. As to the kind of experiment: FACS competition: antibody titrated against human PD-L1 binding to PD-1; falling curve, half-maximal value labelled EC50 on the sheet. How it is done:
In order to test whether the bispecific antibodies could block hPD-L1 binding to hPD-1 protein, a competitive FACS was conducted. […] Plates were incubated at 4° C. for 1 hour. After wash, the binding of W315-hPro1.ECD.mFc to cell expressive human PD-1 was detected by FITC-labeled goat anti-mouse antibody (abcam 98716 1:125). The competition binding of antibodies to the cells was tested by flow cytometry and the mean fluorescence intensity (MFI) was analyzed by FlowJo.

Assay [5] concerns the target T3, human CTLA-4 on engineered 293F cells …. As to the kind of experiment: FACS on human CTLA-4 engineered cells. As to the method:
as §1

For assay [6], the target named is CTLA-4 (competition assays of Example 15) (UniProt P16410 36-161, limits assumed). Kind of assay: FACS competition: antibody titrated against CD80 binding to CTLA-4.
Assay [7] has as its target FcγRIIIa (V176) (UniProt P08637 17-208). As to the kind of experiment: SPR (Biacore), receptor captured on anti-his chip, steady state model. How it is done:
(§2) Antibody binding affinity to FcγRs was detected using Biacore T200 (or Biacore 8K). Each receptor was captured on an anti-his antibody immobilized CM5 sensor chip (GE). Antibodies at different concentrations were injected over the sensor chip at a flow rate of 30 uL/min for an association phase of 60 s, followed by 60 s dissociation. The chip was then regenerated by 10 mM glycine (pH 1.5) after each binding cycle.
(§3) The sensorgrams of blank surface and buffer channel were subtracted from the test sensorgrams. The experimental data was fitted by 1:1 model using Langmiur analysis (for FcγRI) or steady state model (for other receptors). Molecular weight of 150 KDa was used to calculate the molar concentration of antibodies.
A general note: SPR reads the build-up and loss of mass on a sensor chip optically.

Assay [8] concerns the target FcγRIIIb (UniProt O75015 17-200, limits assumed). The assay is described as above. How it is done: as §2, §3
In assay [9] the target is T4, FcγRIIa (R167) (UniProt P12318 36-218, limits assumed).
T4 sequence (looked up): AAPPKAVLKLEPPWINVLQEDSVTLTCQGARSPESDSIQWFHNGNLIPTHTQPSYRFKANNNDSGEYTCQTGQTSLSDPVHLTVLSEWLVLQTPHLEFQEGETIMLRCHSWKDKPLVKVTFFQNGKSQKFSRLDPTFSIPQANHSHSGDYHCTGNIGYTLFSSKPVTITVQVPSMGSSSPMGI
The description is as above. As to the method: as §2, §3

The target in assay [10] is FcγRIIIa (F176) (UniProt P08637 17-208). The description is as above. How it is done: as §2, §3
The target in assay [11] is T5, FcγRIIb (UniProt P31994 46-217, limits assumed).
T5 sequence (looked up): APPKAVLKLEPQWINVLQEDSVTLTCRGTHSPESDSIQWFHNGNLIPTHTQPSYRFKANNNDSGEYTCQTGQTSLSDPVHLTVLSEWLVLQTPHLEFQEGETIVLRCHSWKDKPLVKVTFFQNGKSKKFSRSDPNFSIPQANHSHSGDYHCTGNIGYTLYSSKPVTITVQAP
The description is as above. As to the method: as §2, §3

Assay [12] concerns the target T6, FcγRIIa (H167) (UniProt P12318 36-218, limits assumed).
T6 sequence (looked up): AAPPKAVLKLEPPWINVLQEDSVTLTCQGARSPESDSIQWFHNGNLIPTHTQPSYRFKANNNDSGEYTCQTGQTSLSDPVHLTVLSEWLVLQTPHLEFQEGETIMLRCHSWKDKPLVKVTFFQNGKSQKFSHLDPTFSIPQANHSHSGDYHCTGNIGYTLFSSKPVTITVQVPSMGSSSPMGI
Described as above. As to the method:
as §2, §3

Assay [13] has as its target T7, FcγRI (UniProt P12314 16-288, limits assumed).
T7 construct: His-tagged by the capture method
Kind of assay: SPR (Biacore), receptor captured on anti-his chip, 1:1 model. As to the method:
as §2, §3

T3 sequence (P16410 36-223, change not shown): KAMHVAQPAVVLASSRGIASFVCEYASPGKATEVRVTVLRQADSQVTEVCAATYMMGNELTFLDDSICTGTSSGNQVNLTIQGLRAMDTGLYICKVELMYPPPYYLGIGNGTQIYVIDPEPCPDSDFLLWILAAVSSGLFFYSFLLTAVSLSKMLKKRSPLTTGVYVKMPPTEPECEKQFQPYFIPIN
T2 sequence (Q15116 25-288, change not shown): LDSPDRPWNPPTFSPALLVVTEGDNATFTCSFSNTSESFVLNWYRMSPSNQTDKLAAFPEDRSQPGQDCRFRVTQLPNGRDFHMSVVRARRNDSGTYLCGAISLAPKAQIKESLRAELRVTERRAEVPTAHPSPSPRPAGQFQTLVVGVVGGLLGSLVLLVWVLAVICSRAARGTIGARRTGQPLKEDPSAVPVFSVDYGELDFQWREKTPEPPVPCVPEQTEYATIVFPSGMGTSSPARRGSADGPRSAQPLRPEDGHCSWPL
Sequence of CTLA-4 (competition assays of Example 15) (P16410 36-161 limits assumed): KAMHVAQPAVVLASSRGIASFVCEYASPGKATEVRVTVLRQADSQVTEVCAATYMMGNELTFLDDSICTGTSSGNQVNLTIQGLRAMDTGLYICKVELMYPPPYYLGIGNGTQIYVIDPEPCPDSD
Sequence of FcγRIIIa (F176) (P08637 17-208 limits assumed): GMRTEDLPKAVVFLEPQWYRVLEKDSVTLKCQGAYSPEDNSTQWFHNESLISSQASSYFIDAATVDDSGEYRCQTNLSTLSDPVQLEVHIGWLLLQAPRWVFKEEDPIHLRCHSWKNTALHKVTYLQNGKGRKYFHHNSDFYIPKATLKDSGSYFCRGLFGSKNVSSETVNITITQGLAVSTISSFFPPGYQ
T7 sequence (P12314 16-288 limits assumed): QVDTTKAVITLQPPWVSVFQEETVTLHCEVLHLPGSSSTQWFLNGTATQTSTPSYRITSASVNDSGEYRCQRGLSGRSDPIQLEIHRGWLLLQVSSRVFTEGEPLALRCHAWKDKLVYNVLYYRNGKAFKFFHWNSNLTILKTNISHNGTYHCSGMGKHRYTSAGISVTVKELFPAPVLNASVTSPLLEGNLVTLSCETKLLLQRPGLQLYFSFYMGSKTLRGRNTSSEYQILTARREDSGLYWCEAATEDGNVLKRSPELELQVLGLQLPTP
Sequence of FcγRIIIa (V176) (P08637 17-208 F176V limits assumed): as the sequence (P08637 17-208 limits assumed) above, with F160V counted along it
T1 sequence (Q15116 25-170): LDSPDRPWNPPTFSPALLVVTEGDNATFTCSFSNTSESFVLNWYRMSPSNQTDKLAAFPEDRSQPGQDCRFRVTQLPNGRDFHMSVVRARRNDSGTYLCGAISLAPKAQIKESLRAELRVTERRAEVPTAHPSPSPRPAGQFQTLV
Sequence of FcγRIIIb (O75015 17-200 limits assumed): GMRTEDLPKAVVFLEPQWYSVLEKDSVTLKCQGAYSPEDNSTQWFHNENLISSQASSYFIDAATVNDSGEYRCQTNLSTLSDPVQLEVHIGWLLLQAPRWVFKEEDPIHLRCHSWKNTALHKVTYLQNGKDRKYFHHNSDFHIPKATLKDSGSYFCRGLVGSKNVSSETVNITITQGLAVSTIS

B1: U6T5.G25.IgG4, bispecific anti-PD-1 x CTLA-4 (as listed in Example 15) (bispecific antibody)
heavy: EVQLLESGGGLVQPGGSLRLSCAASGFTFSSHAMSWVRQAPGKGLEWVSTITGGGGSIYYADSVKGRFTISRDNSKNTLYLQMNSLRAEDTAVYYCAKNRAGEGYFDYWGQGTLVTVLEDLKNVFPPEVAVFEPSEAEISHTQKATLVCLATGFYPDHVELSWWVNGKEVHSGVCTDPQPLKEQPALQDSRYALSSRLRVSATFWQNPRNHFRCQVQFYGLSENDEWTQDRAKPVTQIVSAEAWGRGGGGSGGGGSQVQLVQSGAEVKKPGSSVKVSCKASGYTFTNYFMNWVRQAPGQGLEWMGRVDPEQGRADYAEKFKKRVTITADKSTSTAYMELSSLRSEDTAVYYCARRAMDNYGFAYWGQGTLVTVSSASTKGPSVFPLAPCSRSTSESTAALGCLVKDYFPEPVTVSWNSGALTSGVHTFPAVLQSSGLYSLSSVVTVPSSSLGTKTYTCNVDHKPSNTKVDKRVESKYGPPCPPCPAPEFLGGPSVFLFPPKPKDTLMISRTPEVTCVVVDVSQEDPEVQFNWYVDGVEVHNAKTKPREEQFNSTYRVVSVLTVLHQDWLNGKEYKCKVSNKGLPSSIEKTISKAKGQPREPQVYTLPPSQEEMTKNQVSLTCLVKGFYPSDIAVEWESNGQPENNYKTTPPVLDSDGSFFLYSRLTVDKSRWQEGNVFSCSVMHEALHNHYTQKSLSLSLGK
light 1: SYELTQPLSVSVALGQTARITCGGDNIGNKDVHWYQQKPGQAPVLVIYRDSNRPSGIPEGFSGSNSGNTATLTISRAQAGDEADYYCQVWDSIWVFGGGTKLTVLPDIQNPDPAVYQLRDSKSSDKSVCLFTDFDSQTQVSQSKDSDVYITDKCVLDMRSMDFKSNSAVAWSQKSDFACANAFQNSIIPEDTFFPSPESS
light 2: EIVLTQSPDFQSVTPKEKVTITCSANSALSYMYWYQQKPDQSPKLWVHGTSNLASGVPSRFSGSGSGTDFTLTINSLEAEDAATYYCHHWSNTQWTFGGGTKVEIKRTVAAPSVFIFPPSDEQLKSGTASVVCLLNNFYPREAKVQWKVDNALQSGNSQESVTEQDSKDSTYSLSSTLTLSKADYEKHKVYACEVTHQGLSSPVTKSFNRGEC
notes: kept apart
The EC50 is the concentration at which the effect is half-maximal. As usually defined, the IC50 is the concentration that inhibits the measured activity by half. As to B1, the results for the EC50 in assay [1], in assay [2] and in assay [5] were 0.071 nM, 1.32 nM and 7.55 nM, respectively. Moreover, the “fold improvement of EC50 against the benchmark antibody” value in assay [3] stood at 1.6 fold. Further, the values for the IC50 in assay [4] and in [6] were 1.92 nM and 0.758 nM, respectively.

B2: T3U4.E17-2.(2).uIgG1 (E17-Design_2-QQQQ in wild type IgG1 with knobs-into-holes) (bispecific antibody)
heavy 1: not shown
light 1: DIVMTQSPDSLAVSLGERATINCKSSQSLLNSRTRKNYLAWYQQKPGQPPKLLIYWASTRQSGVPDRFSGSGSGTDFTLTISSLQAEDVAVYYCTQSHTLRTFGGGTKVEIKPDIQNPDPAVYQLRDSKSSDKSVCLFTDFDSQTQVSQSKDSDVYITDKCVLDMRSMDFKSNSAVAWSQKSDFACANAFQNSIIPEDTFFPSPESS
heavy 2: QMQLVQSGPEVKKPGTSVKVSCKASGYAFTSYNMYWVRQARGQRLEWIGYIDPYNGDTTYNQKFKGRVTITRDMSTSTAYMELSSLRSEDTAVYYCLTTAYAMDYWGQGTLVTVSSASTKGPSVFPLAPSSKSTSGGTAALGCLVKDYFPEPVTVSWNSGALTSGVHTFPAVLQSSGLYSLSSVVTVPSSSLGTQTYICNVNHKPSNTKVDKRVEPKSCDKTHTCPPCPAPELLGGPSVFLFPPKPKDTLMISRTPEVTCVVVDVSHEDPEVKFNWYVDGVEVHNAKTKPREEQYNSTYRVVSVLTVLHQDWLNGKEYKCKVSNKALPAPIEKTISKAKGQPREPQVCTLPPSREEMTKNQVSLSCAVKGFYPSDIAVEWESNGQPENNYKTTPPVLDSDGSFFLVSKLTVDKSRWQQGNVFSCSVMHEALHNHYTQKSLSLSPGK
light 2: DIQLTQSPSFLSASVGDRVTITCSASSTVNYMHWYQQKPGKAPKLLIYSTSNLASGVPSRFSGSGSGTEFTLTISSLQPEDFATYYCHQWSSYPYTFGQGTKLEIKRTVAAPSVFIFPPSDEQLKSGTASVVCLLNNFYPREAKVQWKVDNALQSGNSQESVTEQDSKDSTYSLSSTLTLSKADYEKHKVYACEVTHQGLSSPVTKSFNRGEC
notes: Order T3-HC / T3-LC / U4-HC / U4-LC; copies: 1 + 1 + 1 + 1
One may read the Kd as the free concentration of one partner at which half of the binding sites on the other are occupied at equilibrium, for simple one-to-one binding. As to B2, the Kd is 644 nM in assay [7]; 5160 nM in [8]; 4830 nM in assay [9]; 2080 nM in assay [10]; 8070 nM in assay [11]; 3580 nM in [12]. Further, binding in assay [13] was put at a Kd of 1.3 nM.
